Eleven molecules from patent publication US20240116985A1, “STAPLED PEPTIDES AND METHODS THEREOF” (priority 2020, published 2024) can be followed below.

Starred links: 1 amine or outer side, 2 acyl side, 3 side chain; linkers in the order of their positions; H or OH if unused. Positions of bridges follow the written chain, without caps; N, C: chain ends. Non-standard residues stand in square brackets, D forms with d. Primed or numbered codes have the meaning given here. No end group written: not given here. PyrS2″ = (S)-3-amino-1-((pent-4-en-1-yloxy)carbonyl)pyrrolidine-3-carboxylic acid (stapling residue), C=CCCCOC(=O)N1CC[C@@](N[*:1])(C(=O)[*:2])C1; B5(4) = 2,2-bis(4-pentenyl)glycine = 2-amino-2-(pent-4-en-1-yl)hept-6-enoic acid (stitching residue), C=CCCCC(CCCC=C)(N[*:1])C(=O)[*:2]; B5(5) = 2,2-bis(4-pentenyl)glycine, 2-amino-2-(pent-4-en-1-yl)hept-6-enoic acid (stitching residue), C=CCCCC(CCCC=C)(N[*:1])C(=O)[*:2]; B5(12) = 2-amino-2-(pent-4-en-1-yl)hept-6-enoic acid (two olefin side chains), C=CCCCC(CCCC=C)(N[*:1])C(=O)[*:2]; B5(25) = 2-amino-2-(pent-4-en-1-yl)hept-6-enoic acid (stitching residue), C=CCCCC(CCCC=C)(N[*:1])C(=O)[*:2]; Phe(3-COOH) = N[C@@H](Cc1cccc(C(=O)O)c1)C(=O)O; Phe(2-Cl) = N[C@@H](Cc1ccccc1Cl)C(=O)O; Phe(2-Me) = Cc1ccccc1C[C@H](N)C(=O)O; Bta = N[C@@H](Cc1csc2ccccc12)C(=O)O; αAllylPro = C=CC[C@@]1(C(=O)O)CCCN1; tBuAla = CC(C)(C)C[C@H](N)C(=O)O; 3Thi = N[C@@H](Cc1ccsc1)C(=O)O; PyrS2(4) = not defined here; Aib = CC(C)(N)C(=O)O

To fix the notation:
B1: I-2576 (peptide)
peptide: Ac-[αAllylPro]D[tBuAla][B5(25)]D[Phe(3-COOH)][Aib]AF[dS][PyrS2″][3Thi][Bta][dS]A-NH2
modifications: staple 1-4, 4-11 (inferred); not fully specified; printed as Ac-PL3-Asp-Npg-B5-Asp-3COOHF-Aib-Ala-Phe-dSer-PyrS2-3Thi-BztA-dSer-Ala-NH2
B2: I-1910 (peptide)
peptide: Ac-[αAllylPro]D[tBuAla][B5(12)]D[Phe(3-COOH)]HAFL[PyrS2(4)][3Thi][Bta]F-NH2
modifications: staple 1-4, 4-11; not fully specified; printed as Ac-PL3-Asp-Npg-B5-Asp-3COOHF-His-Ala-Phe-Leu-PyrS2-3Thi-BztA-Phe-NH2; reading uncertain
B3: I-1911 (peptide)
peptide: Ac-[αAllylPro]D[tBuAla][B5(12)]D[Phe(3-COOH)]KAFL[PyrS2(4)][3Thi][Bta]F-NH2
modifications: staple 1-4, 4-11; not fully specified; printed as Ac-PL3-Asp-Npg-B5-Asp-3COOHF-Lys-Ala-Phe-Leu-PyrS2-3Thi-BztA-Phe-NH2; reading uncertain

Sequence of B-cat-Halo (beta-catenin HaloTag NanoBRET construct expressed in HEK293 cells) (P35222 whole entry): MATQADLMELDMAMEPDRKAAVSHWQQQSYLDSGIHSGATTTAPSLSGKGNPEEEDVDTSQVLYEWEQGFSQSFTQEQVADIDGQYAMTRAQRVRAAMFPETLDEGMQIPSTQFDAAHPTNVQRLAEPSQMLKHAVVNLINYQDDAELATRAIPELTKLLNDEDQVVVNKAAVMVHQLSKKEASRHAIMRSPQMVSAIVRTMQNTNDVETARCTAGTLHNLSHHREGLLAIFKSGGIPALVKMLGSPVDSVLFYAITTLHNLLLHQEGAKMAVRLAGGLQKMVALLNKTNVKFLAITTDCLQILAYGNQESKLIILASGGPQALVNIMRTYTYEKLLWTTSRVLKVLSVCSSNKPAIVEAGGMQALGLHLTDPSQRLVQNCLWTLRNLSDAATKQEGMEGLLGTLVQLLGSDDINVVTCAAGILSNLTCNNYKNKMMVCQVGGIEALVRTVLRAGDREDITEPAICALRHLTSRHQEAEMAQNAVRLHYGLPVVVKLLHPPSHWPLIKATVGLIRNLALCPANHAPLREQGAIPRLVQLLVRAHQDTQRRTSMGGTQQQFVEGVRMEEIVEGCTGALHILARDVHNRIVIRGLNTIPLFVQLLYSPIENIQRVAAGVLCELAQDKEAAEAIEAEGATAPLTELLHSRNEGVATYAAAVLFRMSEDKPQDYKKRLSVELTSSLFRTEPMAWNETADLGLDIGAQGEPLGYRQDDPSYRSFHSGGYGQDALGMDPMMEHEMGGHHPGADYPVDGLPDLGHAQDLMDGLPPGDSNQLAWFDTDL

In one assay the target is Bcat-Halo (UniProt P35222). The experiment in a line: NanoBRET (Abs IC50) in HEK293 cells; Bcat-Halo / TCF4-Luc.
Sequence of Bcat-Halo (P35222 whole entry): as above
With Ac-[αAllylPro]D[tBuAla][B5(5)]D[Phe(3-COOH)]AAFA[PyrS2″][Phe(2-Cl)][Bta]A-NH2 (staple 1-4, 4-11) [I-2023], the half-maximal inhibitory concentration (IC50) was determined as 7800 nM.
Regarding Ac-[αAllylPro]D[tBuAla][B5(5)]D[Phe(3-COOH)]AAFA[PyrS2″][Phe(2-Cl)][Bta][dA]-NH2 (staple 1-4, 4-11) [I-2026], the concentration for half-maximal inhibition (IC50) came to 9700 nM.
The same measure, in the same setting: with Ac-[αAllylPro]D[tBuAla][B5(5)]D[Phe(3-COOH)]AAFS[PyrS2″][Phe(2-Cl)][Bta]F-NH2 (staple 1-4, 4-11) [I-2029] the figure was 26200 nM.
As for Ac-[αAllylPro]D[tBuAla][B5(5)]D[Phe(3-COOH)]AAFS[PyrS2″][Phe(2-Cl)][Bta]V-NH2 (staple 1-4, 4-11) [I-2028], the IC50 stood at 17600 nM.

The next assay concerns the target Bcat-Halo (UniProt P35222). Kind of assay: NanoBRET Abs IC50, HEK293 cells transfected with Bcat-Halo and TCF4-Luc (competitor: TCF4-Luc); cellular assay.
With Ac-[αAllylPro]D[tBuAla][B5(5)]DDAAFL[PyrS2″][Phe(2-Cl)][Bta][dT]-NH2 (staple 1-4, 4-11) [I-1035], the IC50 came to 10200 nM.
Same read-out and setting: with Ac-[αAllylPro]D[tBuAla][B5(5)]EDAAFN[PyrS2″][Phe(2-Cl)][Bta][dT]-NH2 (staple 1-4, 4-11) [I-1030] the figure was more than 20000 nM.
Consider Ac-[αAllylPro]E[tBuAla][B5(5)]DDAAFN[PyrS2″][Phe(2-Cl)][Bta][dT]-NH2 (staple 1-4, 4-11) [I-1029], for which the IC50 was more than 20000 nM.

Another assay addresses full-length beta-Catenin (Uniprot ID P35222) (Homo sapiens (Human)) (UniProt P35222). Kind of assay: fluorescence polarization competition; competitor 5FAM-TCF4(10-53) probe on full-length beta-catenin.
Target sequence in this assay (P35222 whole entry, one chain of several): as the sequence (P35222 whole entry) above
[αAllylPro]D[tBuAla][B5(5)]DDAAFF[PyrS2″][Phe(2-Me)][Bta]Q-NH2 (staple 1-4; staple 4-11 (inferred)) [I-1326] yielded an IC50 of 12 nM.

The next assay has the same target. Kind of assay: fluorescence polarization competition; full-length beta-catenin, 5FAM-TCF4 10-53 probe as competitor.
Target sequence in this assay (P35222 whole entry, one chain of several): as the sequence (P35222 whole entry) above
Regarding B1, the IC50 is 6 nM.

Another assay shares this target. Kind of assay: fluorescence polarization competition; peptide titrated against 5FAM-TCF4(10-53) bound to full-length beta-catenin.
Target sequence in this assay (P35222 whole entry, one chain of several): as the sequence (P35222 whole entry) above
For B2, the concentration for half-maximal inhibition (IC50) was found to be 17 nM.
B3 yielded a half-inhibitory concentration (IC50) of 38 nM.

For a further assay the target is unchanged. The experiment in a line: fluorescence polarization competition; full-length beta-catenin, competitor 5FAM-TCF4(10-53) probe.
Target sequence in this assay (P35222 2-781 limits assumed): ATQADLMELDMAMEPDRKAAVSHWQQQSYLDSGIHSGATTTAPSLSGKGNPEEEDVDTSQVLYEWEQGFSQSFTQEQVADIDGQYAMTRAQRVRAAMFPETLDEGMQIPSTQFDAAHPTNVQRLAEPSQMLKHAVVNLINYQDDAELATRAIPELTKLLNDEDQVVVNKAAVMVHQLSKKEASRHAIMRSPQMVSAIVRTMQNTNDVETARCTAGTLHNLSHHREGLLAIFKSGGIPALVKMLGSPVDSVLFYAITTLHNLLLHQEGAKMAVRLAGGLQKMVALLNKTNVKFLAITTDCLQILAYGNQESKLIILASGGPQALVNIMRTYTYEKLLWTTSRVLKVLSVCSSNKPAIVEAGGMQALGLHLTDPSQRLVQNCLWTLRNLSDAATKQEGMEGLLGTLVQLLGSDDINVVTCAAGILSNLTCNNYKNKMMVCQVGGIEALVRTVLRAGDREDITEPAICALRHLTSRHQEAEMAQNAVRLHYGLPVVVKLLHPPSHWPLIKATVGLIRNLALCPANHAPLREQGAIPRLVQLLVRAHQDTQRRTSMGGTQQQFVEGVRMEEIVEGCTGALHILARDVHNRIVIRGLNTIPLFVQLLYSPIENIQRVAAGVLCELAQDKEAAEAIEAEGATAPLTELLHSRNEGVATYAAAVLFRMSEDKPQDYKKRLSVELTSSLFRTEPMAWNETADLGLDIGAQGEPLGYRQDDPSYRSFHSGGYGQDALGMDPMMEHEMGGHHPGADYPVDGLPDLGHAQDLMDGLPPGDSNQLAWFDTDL
[αAllylPro]D[tBuAla][B5(5)]DDAAFF[PyrS2″][Phe(2-Me)][Bta]Q-NH2 (staple 1-4; staple 4-11 (inferred)) [I-1326] displayed a concentration giving a half-maximal response (EC50) of 12 nM.

The target is the same in the next assay. Kind of assay: FP competition; full-length beta-catenin + 5FAM-TCF4(10-53) probe.
Target sequence in this assay (P35222 whole entry, one chain of several): as the sequence (P35222 whole entry) above
As to Ac-[αAllylPro]D[tBuAla][B5(5)]D[Phe(3-COOH)]AAFA[PyrS2″][Phe(2-Cl)][Bta]A-NH2 (staple 1-4, 4-11) [I-2023], the IC50 came out at 32 nM.
Ac-[αAllylPro]D[tBuAla][B5(5)]D[Phe(3-COOH)]AAFA[PyrS2″][Phe(2-Cl)][Bta][dA]-NH2 (staple 1-4, 4-11) [I-2026]: the IC50 was determined as 26 nM.
On the same count and under the same terms, with Ac-[αAllylPro]D[tBuAla][B5(5)]D[Phe(3-COOH)]AAFS[PyrS2″][Phe(2-Cl)][Bta]F-NH2 (staple 1-4, 4-11) [I-2029] the figure was 35 nM; with Ac-[αAllylPro]D[tBuAla][B5(5)]D[Phe(3-COOH)]AAFS[PyrS2″][Phe(2-Cl)][Bta]V-NH2 (staple 1-4, 4-11) [I-2028], 32 nM.

The next assay addresses B-cat-Halo (beta-catenin HaloTag NanoBRET construct expressed in HEK293 cells) (UniProt P35222). Kind of assay: NanoBRET Abs IC50 in HEK293 cells; Bcat-Halo, competitor TCF4-Luc.
[αAllylPro]D[tBuAla][B5(5)]DDAAFF[PyrS2″][Phe(2-Me)][Bta]Q-NH2 (staple 1-4; staple 4-11 (inferred)) [I-1326] returned an IC50 of 6200 nM.

The next assay has as its target full-length beta-Catenin (Uniprot ID P35222) (Homo sapiens (Human)) (UniProt P35222). The experiment in a line: fluorescence polarization competition; 10 nM full-length beta-catenin + 10 nM 5FAM-TCF4 10-53 as competitor probe.
Target sequence in this assay (P35222 2-781 limits assumed): as the sequence (P35222 2-781 limits assumed) above
As for Ac-[αAllylPro]D[tBuAla][B5(5)]DDAAFL[PyrS2″][Phe(2-Cl)][Bta][dT]-NH2 (staple 1-4, 4-11) [I-1035], the EC50 was found to be 21 nM.
In the case of Ac-[αAllylPro]D[tBuAla][B5(5)]EDAAFN[PyrS2″][Phe(2-Cl)][Bta][dT]-NH2 (staple 1-4, 4-11) [I-1030], the EC50 was 507 nM.
In the case of Ac-[αAllylPro]E[tBuAla][B5(5)]DDAAFN[PyrS2″][Phe(2-Cl)][Bta][dT]-NH2 (staple 1-4, 4-11) [I-1029], the EC50 was 823 nM.

A further assay has the same target. The experiment in a line: cell-based or functional assay.
Target sequence in this assay (P35222 2-781 limits assumed): as above
Consider Ac-[αAllylPro]D[tBuAla][B5(5)]DDAAFL[PyrS2″][Phe(2-Cl)][Bta][dT]-NH2 (staple 1-4, 4-11) [I-1035], for which the DLD1 reporter assay Abs IC50 was more than 20000 nM.
Regarding Ac-[αAllylPro]D[tBuAla][B5(5)]EDAAFN[PyrS2″][Phe(2-Cl)][Bta][dT]-NH2 (staple 1-4, 4-11) [I-1030], the DLD1 reporter assay Abs IC50 was more than 20000 nM.
Turning to Ac-[αAllylPro]E[tBuAla][B5(5)]DDAAFN[PyrS2″][Phe(2-Cl)][Bta][dT]-NH2 (staple 1-4, 4-11) [I-1029], the DLD1 reporter assay Abs IC50 is more than 20000 nM.

The target of another assay is Bcat-Halo (UniProt P35222). Kind of assay: NanoBRET Abs IC50; B-cat-Halo / TCF4-Luc engagement in HEK293 cells.
In the case of B1, the IC50 was found to be 16100 nM.

The next assay addresses Bcat-Halo (UniProt P35222). The experiment in a line: NanoBRET absolute IC50 in HEK293 cells; Bcat-Halo, competitor TCF4-Luc.
Regarding Ac-[αAllylPro]D[tBuAla][B5(5)]DDAAFL[PyrS2″][Phe(2-Cl)][Bta][dT]-NH2 (staple 1-4, 4-11) [I-1035], the IC50 is 10200 nM.
Molecule Ac-[αAllylPro]D[tBuAla][B5(5)]EDAAFN[PyrS2″][Phe(2-Cl)][Bta][dT]-NH2 (staple 1-4, 4-11) [I-1030] yielded a half-inhibitory concentration (IC50) of more than 20000 nM.
In turn, Ac-[αAllylPro]E[tBuAla][B5(5)]DDAAFN[PyrS2″][Phe(2-Cl)][Bta][dT]-NH2 (staple 1-4, 4-11) [I-1029] had an IC50 of more than 20000 nM.

The target of a further assay is full-length beta-Catenin (Uniprot ID P35222) (Homo sapiens (Human)) (UniProt P35222). Kind of assay: fluorescence polarization competition; full-length beta-catenin, competitor 5FAM-TCF4 10-53.
Target sequence in this assay (P35222 whole entry, one chain of several): as the sequence (P35222 whole entry) above
For the molecule Ac-[αAllylPro]D[tBuAla][B5(5)]DDAAFL[PyrS2″][Phe(2-Cl)][Bta][dT]-NH2 (staple 1-4, 4-11) [I-1035], the IC50 came to 21 nM.
Turning to Ac-[αAllylPro]D[tBuAla][B5(5)]EDAAFN[PyrS2″][Phe(2-Cl)][Bta][dT]-NH2 (staple 1-4, 4-11) [I-1030], the concentration for half-maximal inhibition (IC50) was determined as 507 nM.
Regarding Ac-[αAllylPro]E[tBuAla][B5(5)]DDAAFN[PyrS2″][Phe(2-Cl)][Bta][dT]-NH2 (staple 1-4, 4-11) [I-1029], the half-maximal inhibitory concentration (IC50) worked out at 823 nM.
